The values below come from article PMC3169410 (Acta Crystallographica Section F: Structural Biology and …, 2011).

The series concerns the molecule itself. As to the kind of experiment: crystal structure.

B1: BrabA.11339.a, putative β-lactamase-like protein from Brucella melitensis biovar Abortus 2308 (natural protein)
chain: TSPRNCLRFTLLGCGSSPGVPRINGDWGKCDPKNPKNRRRRASLLVERYDAEGNNTVVVIDTGPDFRMQMIDSGVHMLDAAVYTHPHADHIHGIDDLRTYVVDNGRLMDVYANRLTRNRLYDTFGYCFETPVGSSYPPILSMHDIAPETPFSIEGAGGAIRFEPFSQVHGDIESLGFRIGSVVYCTDVSAFPEQSLQYIKDADVLIIGALQYRPHPSHFSLGEALEWIEKLSPKRAILTHMHVPLDYETVMRETPHHVEPGYDGLRFEVAV
notes: also called BAB1_1016
As usually defined, the stoichiometry N is the number of molecules, sites or subunits per partner or assembly. With B1, the “stoichiometry N” value came out at 2.
